Results on three molecules are retold here after article PMC10397247.

One experiment has as its target T1, P8-AA.
T1 chain: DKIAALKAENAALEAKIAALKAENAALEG
The experiment in a line: two-hybrid library CCmax.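 Also: natural log of median RNA to DNA barcode read ratio; higher means stronger binding.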 Conditions: mean of both orientations.

The next experiment concerns the target T2, P9-AA.
T2 chain: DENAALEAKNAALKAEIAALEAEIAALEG
The experiment in a line: two-hybrid library CCmax.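 Also: natural log of median RNA to DNA barcode read ratio; higher means stronger binding.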 Conditions: mean of both orientations.

Another experiment deals with T3, P12-AA.
T3 chain: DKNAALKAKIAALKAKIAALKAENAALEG
Description: two-hybrid library CCmax.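 Also: natural log of median RNA to DNA barcode read ratio; higher means stronger binding.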 Conditions: mean of both orientations.

Another experiment has as its target T4, P3-AA.
T4 chain: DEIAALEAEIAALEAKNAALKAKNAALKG
The experiment in a line: two-hybrid library CCmax.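 Also: natural log of median RNA to DNA barcode read ratio; higher means stronger binding.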 To be noted: mean of both orientations.

In the next experiment the target is T5, P10-AA.
T5 chain: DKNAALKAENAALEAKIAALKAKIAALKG
Description: two-hybrid library CCmax.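 Also: natural log of median RNA to DNA barcode read ratio; higher means stronger binding.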 To be noted: mean of both orientations.

The next experiment addresses T6, P7-AA.
T6 chain: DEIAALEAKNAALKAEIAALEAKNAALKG
The experiment in a line: two-hybrid library CCmax.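 Also: natural log of median RNA to DNA barcode read ratio; higher means stronger binding.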 Conditions: mean of both orientations.

The target in a further experiment is T7, P2-AA.
T7 chain: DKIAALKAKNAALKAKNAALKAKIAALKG
Description: two-hybrid library CCmax. Conditions: mean of both orientations.

The target of the next experiment is GCN2_T. The experiment in a line: two-hybrid library CCmax.
The target of another experiment is T8, P1-AA.
T8 chain: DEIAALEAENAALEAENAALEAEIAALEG
The experiment in a line: two-hybrid library CCmax. Conditions: mean of both orientations.

A further experiment has as its target T9, P4-AA.
T9 chain: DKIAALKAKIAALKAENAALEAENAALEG
Description: two-hybrid library CCmax. Conditions: mean of both orientations.

For another experiment, the target named is T10, AP8-AA.
T10 chain: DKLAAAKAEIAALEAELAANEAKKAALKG
The experiment in a line: two-hybrid library CCmax.

The target in a further experiment is T11, P11-AA.
T11 chain: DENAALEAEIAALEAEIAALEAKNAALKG
Description: two-hybrid library CCmax. To be noted: mean of both orientations.

A further experiment addresses T12, 4H796-bH.
T12 chain: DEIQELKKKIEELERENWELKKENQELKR
The experiment in a line: two-hybrid library CCNG1.

The target in a further experiment is T13, 4H949-bH.
T13 chain: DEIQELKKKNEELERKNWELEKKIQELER
The experiment in a line: two-hybrid library CCNG1.

The target in another experiment is T14, 4H730-bH.
T14 chain: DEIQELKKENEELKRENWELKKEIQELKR
Description: two-hybrid library CCNG1.

In the next experiment the target is T15, 4H3297-bH.
T15 chain: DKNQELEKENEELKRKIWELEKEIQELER
Description: two-hybrid library CCNG1.

Another experiment addresses T16, 4H56-bH.
T16 chain: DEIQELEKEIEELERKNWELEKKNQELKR
The experiment in a line: two-hybrid library CCNG1.

Another experiment addresses T17, 4H3381-bH.
T17 chain: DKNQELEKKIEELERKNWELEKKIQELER
The experiment in a line: two-hybrid library CCNG1.

In a further experiment the target is T18, 4H3041-bH.
T18 chain: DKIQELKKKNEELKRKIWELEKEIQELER
Description: two-hybrid library CCNG1.

The target of the next experiment is T19, 4H3364-bH.
T19 chain: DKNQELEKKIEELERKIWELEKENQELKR
Description: two-hybrid library CCNG1.

In the next experiment the target is T20, 4H932-bH.
T20 chain: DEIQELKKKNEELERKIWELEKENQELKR
Description: two-hybrid library CCNG1.

The target in a further experiment is T21, 4H349-bH.
T21 chain: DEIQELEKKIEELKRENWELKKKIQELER
The experiment in a line: two-hybrid library CCNG1.

A further experiment deals with T22, P9.
T22 chain: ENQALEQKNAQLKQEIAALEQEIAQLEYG
Description: two-hybrid library CC1. Conditions: mean of both orientations.

The next experiment has as its target T23, P8mS.
T23 chain: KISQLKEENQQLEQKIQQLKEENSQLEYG
Description: two-hybrid library CC1. Conditions: mean of both orientations.

The target in the next experiment is T24, P6mS.
T24 chain: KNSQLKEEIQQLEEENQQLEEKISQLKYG
The experiment in a line: two-hybrid library CC1.

For the next experiment, the target named is T25, P7mS.
T25 chain: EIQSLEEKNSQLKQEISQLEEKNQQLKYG
Description: two-hybrid library CC1. To be noted: mean of both orientations.

The target in the next experiment is T26, P7.
T26 chain: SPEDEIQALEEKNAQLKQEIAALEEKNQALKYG
Description: two-hybrid library CC1. To be noted: mean of both orientations.

The next experiment concerns the target T27, P8.
T27 chain: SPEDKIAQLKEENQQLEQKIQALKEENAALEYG
The experiment in a line: two-hybrid library CC1. To be noted: mean of both orientations.

Regarding DKLAAAKAEIAALEAELAANEAKKAALKG [AP8-AA], the interaction score was -1.39 in the experiment with P8-AA; -0.718 with P9-AA; -0.366 with P12-AA; -1.35 with P3-AA; -0.57 with P10-AA; -1.21 with P7-AA. The interaction score with P2-AA is -1.71; in the experiment with GCN2_T, -1.88; in the experiment with P1-AA, -1.78; with P4-AA, -1.17; in the experiment with AP8-AA it was -1.3; with P11-AA, -1.41.

As for DKIQELKKKNEELKRKIWELEKEIQELER [4H3041-bH], the interaction score was -0.497 with 4H796-bH; -0.161 with 4H949-bH; -0.877 with 4H730-bH; 0.592 in the experiment with 4H3297-bH; 0.679 with 4H56-bH; -0.693 with 4H3381-bH. Further, the interaction score in the experiment with 4H3041-bH is 0.721; with 4H3364-bH, -1.08; in the experiment with 4H932-bH, -0.092; in the experiment with 4H349-bH, -0.833.

Take KNSQLKEEIQQLEEENQQLEEKISQLKYG [P6mS]: the interaction score was -2.37 in the experiment with P9; -2.85 with P8mS; -2.84 in the experiment with P6mS; -2.67 with P7mS; -2.01 with P7; -2.63 in the experiment with P8.
